From patent publication US20260234242A1 (HAINAN SIMCERE ZAIMING PHARMACEUTICAL, published 2026)
Residue numbers refer to the chain shown, from its start.

T1: human CDH6 with EC2 removed, on HEK293T cells (HEK293T-hCDH6-EC2 deletion) (human, UniProt P55285 54-790)
T1 construct: Signal peptide not removed here
T1 sequence: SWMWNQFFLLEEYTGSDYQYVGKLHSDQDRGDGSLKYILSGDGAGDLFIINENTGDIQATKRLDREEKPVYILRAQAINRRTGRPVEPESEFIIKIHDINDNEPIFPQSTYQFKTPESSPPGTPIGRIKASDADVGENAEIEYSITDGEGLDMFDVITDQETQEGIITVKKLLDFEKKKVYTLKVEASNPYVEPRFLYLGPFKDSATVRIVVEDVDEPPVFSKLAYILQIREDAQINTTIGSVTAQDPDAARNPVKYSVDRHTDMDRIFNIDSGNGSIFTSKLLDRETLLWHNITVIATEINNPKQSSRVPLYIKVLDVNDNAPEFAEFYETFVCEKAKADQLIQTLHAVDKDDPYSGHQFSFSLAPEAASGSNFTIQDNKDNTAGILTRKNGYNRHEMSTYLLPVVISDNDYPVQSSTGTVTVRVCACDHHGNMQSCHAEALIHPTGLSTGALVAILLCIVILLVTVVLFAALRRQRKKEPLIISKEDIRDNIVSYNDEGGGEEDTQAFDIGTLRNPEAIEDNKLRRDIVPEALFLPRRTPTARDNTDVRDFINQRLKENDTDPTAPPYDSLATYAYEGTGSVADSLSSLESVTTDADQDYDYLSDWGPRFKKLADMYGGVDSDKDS

T2: his-tagged human CDH6 extracellular region protein (hCDH6 ECD-his) (human, UniProt P55285 19-615)
T2 construct: also called Human CDH6-his; hCDH6-his; not shown: his tag
T2 sequence: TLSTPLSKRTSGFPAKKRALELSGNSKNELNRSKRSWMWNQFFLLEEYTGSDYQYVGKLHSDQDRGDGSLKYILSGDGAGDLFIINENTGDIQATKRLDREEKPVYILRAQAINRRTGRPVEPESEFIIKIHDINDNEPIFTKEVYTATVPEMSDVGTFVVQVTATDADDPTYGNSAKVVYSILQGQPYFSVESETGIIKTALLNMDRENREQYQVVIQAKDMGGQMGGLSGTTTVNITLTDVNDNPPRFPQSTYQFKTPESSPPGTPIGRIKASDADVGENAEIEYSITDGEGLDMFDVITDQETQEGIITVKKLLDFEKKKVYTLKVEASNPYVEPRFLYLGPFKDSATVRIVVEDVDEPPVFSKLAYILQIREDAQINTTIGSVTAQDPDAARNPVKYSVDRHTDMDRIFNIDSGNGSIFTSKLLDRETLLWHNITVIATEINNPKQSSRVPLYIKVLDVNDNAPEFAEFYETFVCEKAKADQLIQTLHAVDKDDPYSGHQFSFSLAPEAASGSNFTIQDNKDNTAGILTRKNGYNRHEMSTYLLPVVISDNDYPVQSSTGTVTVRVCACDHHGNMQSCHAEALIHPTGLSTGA

B1: CHI-CDH6-14 (antibody, human IgG1, kappa, V domains shown)
VH: QIQLQQSGPELVKPGTSVKISCKASGYTFTDNYINWVRQRPGQGLEWIGWIYPGTGNSYYNEKFKGKATLTVDTSSSTAYMQFSSLTSEDSAVYLCASSYGDSFDYWGQGTTLTVSS
VL: DIQMTQTTSSLSASLGNRVTISCRASQDIRNYLNWYQQKPDGTFKLLISYTSRLHSGVPSRFSGSGSGTDYSLTVSNLEPEDIATYYCQQYSQLPWTFGGGSRLEIKR
notes: also called CHI-hCDH6-14; CH1-CDH6-14
B2: CHI-CDH6-2 (antibody, human IgG1, kappa, V domains shown)
VH: EVQLQQSGPELVKPGASVRISCKASGYTFTDYYMNWVKQSHGKSLEWIGDIDPNNANTTYNQKFKGKATLTVDKSSSTAYMELRSLTSEDSAVYSCASFGYDVEWFGYWGQGTLVTVSA
VL: QIVLTQSPALMSASPGEKVTMTCSASSSVSYMYWYQQKPRSSPKPWIYLTSNLASGVPARFSGSGSGTSYSLTISSMEAEDAATYYCQQWSSNPFTFGSGTKLEIKR
notes: also called chimeric antibody of murine CDH6-2
B3: CHI-CDH6-13 (antibody, human IgG1, kappa, V domains shown)
VH: DVQLQESGPGLVKPSQSLSLTCSVTGYSITKDSYWNWIRQFPGSKLEWMGFISYDGSRHYNPSLKNRISITRDTSKNQFFLQLNSVTTEDTATYYCARRDYADYWGQGTTLTVSS
VL: B2 VL with S14F, S26T, M32I, S75N, M77L, N93I, F95Y, S99G
notes: also called chimeric antibody of murine CDH6-13
B4: CHI-CDH6-5 (antibody, human IgG1, kappa, V domains shown)
VH: QVQLQQSGAELVRPGTSVKMSCKAAEYTFTNYWIGWVKQRPGHGLEWIGDLYPGGDHANYNEKFEGKATLTADTSSSTAYMQLSSLTSEDSAIYYCARGMLTTGFDSWGQGTTLTVSS
VL: DIVMSQSPSSLAVSAGEKVTMSCKSSQSLFNSRTRKNYLAWYQQKPGQSPKLLIYWASTRESGVPDRFTGSGSGTDFTLTISSVQAEDLAVYYCKQSYYLRTFGGGTKLEIKR
notes: also called CH1-CDH6-5; chimeric antibody of murine CDH6-5
B5: CHI-CDH6-1 (antibody, human IgG1, kappa, V domains shown)
VH: QVQLQQPGAELVRPGSSVKLSCKASGYTFTNYWMHWVKQRPIEGLEWIGDIDPSHSETHYTQKFKDKATLTVDKSSSTAYMQLSSLTSEDSAVYYCARGDLGRFDYWGQGTTLTVSS
VL: DIVLTQSPASLAVSLGQRATISCRASESVSIHGTHLMHWYQQKSGQPPKLLIYAASNLESGVPARFSGSGSETDFTFNIHPVEEEDAATYFCQQSFEDPWTFGGGTKLEIKR
notes: also called CHI-hCDH6-1; CH1-CDH6-1
B6: CHI-CDH6-10 (antibody, human IgG1, kappa, V domains shown)
VH: QVQLQQPGAELVKPGTSVKMSCKASGYTFTSDWIAWVKQRPGQGLEWIGDIYPGSGRTHNNEKFNFKATLTVDTSSNTAYMQLSSLTSEDSAVYFCARPMLGRFDYWGQGTTLTVSS
VL: B5 VL with S44P, F77L, W100F, G104S
notes: also called chimeric antibody of murine CDH6-10
B7: CHI-CDH6-6 (antibody, human IgG1, kappa, V domains shown)
VH: EVQLQQSGPELVKPGDSVKMSCKASGYTFTDYYMAWVRQSHRKSLEWIGYIFPNSGGTDYSQKFKGKATLTVDKSSSTVYMELHSLTSEDSAVYYCARELGADYGDYYAMDHWGQGTSVSVSS
VL: DIQMTQSPASLSASVGETVTITCRASENIDSYLAWYQQKQGKSPQLLVYSATLLADGVPSRFSGSGSGTQYSLKINSLKSEDVARYYCQHYYRTPPTFGSGTKLEIKR
notes: also called CHI-hCDH6-6; chimeric antibody of murine CDH6-6
B8: CHI-CDH6-8 (antibody, human IgG1, kappa, V domains shown)
VH: EVQLQQSGPELVKPGDSVKMSCKASGYTFTDYYMAWIKQNHGKSLEWIGYIYPNNGGTDYNQKFRGKATLTVDKSSSAAYMELHSLTSEDSAVYYCAREIGTLYGDYYAMDYWGQGTSVTVSS
VL: B7 VL with S50T, K79Q, R93S
notes: also called chimeric antibody of murine CDH6-8
B9: CHI-CDH6-9 (antibody, human IgG1, kappa, V domains shown)
VH: QVQLQQPGAELVKPGASVKLSCKASGYTFTGYWMHWVRQRPGQGLEWIGEINPNNGGTNCNEQFKNKATLTVDKSSSTAYMQLSSLTSEDSAVFYCTISFGNYLFFDVWGAGTTVTVSS
VL: DIQMTQSPASLAASVGETITITCQASENIYFSLAWYQQKQGKSPQLLIYNANTLEDGVPSRFVGSGSGTQYSMKINSIQPEDTATYFCDQTYDFPWTFGGGTKLEIKR
notes: also called chimeric antibody of murine CDH6-9
B10: CHI-CDH6-3 (antibody, human IgG1, kappa, V domains shown)
VH: QVQLQQPGAELVKPGASVKLSCKASGYTFTSYWIHWVKQRPGQGLEWIGEINPSNGVTNCNENFKSKATLTVDKSSSTAYMQLSSLTSEDSAVYYCTIPNLLWWYFDVWGAGTTVTVSS
VL: DIQMTQSPASLSVSVGETVTITCRASENIYSNLAWYQQKQGKSPQLLVYEATNLADGVPSRFSGSGSGTQYSLKINSLQSEDFGSYYCQHFWGTLWTFGGGTKLEIKR
notes: also called CH1-CDH6-3; chimeric antibody of murine CDH6-3
B11: CHI-CDH6-4 (antibody, human IgG1, kappa, V domains shown)
VH: QVQLQQSGPELVKPGASVKISCKASGYAFSNFWMNWVKQRPGKGLEWIGWIYPGDGDTNYNGKFKDKATLTADKSSSTAYIQLSSLTSEDSAVYFCARLYDAWGFFDYWGQGTTLTVSS
VL: QIVLTQSPAIMSASPGQKVTITCSASSSVNYMHWYQQKLGSSPKLWIYDKSKLAPGVPARFSGSGSGTSYSLTISSMEAEDAASYFCHQWSSYPPMTFGGGTKLEIKR
notes: also called CH1-CDH6-4; chimeric antibody of murine CDH6-4
B12: NOV0712 (antibody, human IgG1, kappa, V domains shown)
VH: QVQLLESGGGLVQPGGSLRLSCAASGFTFSSHGMHWVRQAPGKGLEWVSVISGSGSNTGYADSVKGRFTISRDNSKNTLYLQMNSLRAEDTAVYYCARQWGSYAFDSWGQGTLVTVSS
VL: DIQMTQSPSSLSASVGDRVTITCRASQSISSYLNWYQQKPGKAPKLLIYAVSTLQSGVPSRFSGSGSGTDFTLTISSLQPEDFATYYCQQSGTFPPTTFGQGTKVEIKR
notes: Positive control, variable regions from WO2018212136A1; also called positive control anti-human CDH6 antibody
B13: CHI-CDH6-11 (antibody, human IgG1, kappa, V domains shown)
VH: QIQLQQSGPELVKPGASVRISCKASGYTFTDYYITWVKLRPGQGLEWIGWIYPGSVNIKYNEKFKGKATLTVDTSSSTAYMQLNSLTSEDSAVYFCARGGYSWFPYWGQGTLVTVSA
VL: NIVMTQSPKSMSMSVGERVTLSCKASENVHTYVSWYQQKPEQSPKLLFYGASTRNTGVPDRFTGSGSATDFTLTISSVQAEDLADYYCGQSYSYPYTFGSGTKLEIKR
notes: also called chimeric antibody of murine CDH6-11

How the values were obtained:
[1] = biological target: T1, human CDH6 with EC2 removed, on HEK293T …; assay: FACS, HEK293T-hCDH6-EC2 deletion cells
[2] = biological target: T2, his-tagged human CDH6 extracellular …; assay: ELISA, coated antigen
Method: (§1) Human CDH6 protein (hCDH6 ECD-his, conventionally synthesized), monkey CDH6 protein (cynoCDH6 ECD-his, conventionally synthesized; the cynoCDH6 ECD sequence was derived from Uniprot #A0A2K5TW62 (19-615)), and murine CDH6 protein (mCDH6 ECD-his, conventionally synthesized; the mCDH6 ECD sequence was derived from Uniprot #P97326 (19-615)) were diluted with PBS to a final concentration of 1 μg/mL, and added to a 96-well ELISA plate at 100 μL/well. The plate was incubated at 4° C. overnight. The next day, the plate was washed 3 times with a plate washing solution (PBS+0.01% (v/v) Tween 20), and a blocking buffer (PBS+0.01% (v/v) Tween 20+2% (w/w) BSA) was added for blocking at room temperature for 2 h. The blocking buffer was discarded, and the plate was washed 3 times. The chimeric antibodies were diluted with 1% BSA+PBS (purchased from Cytiva, Cat. No. SH30264.01) and added to the 96-well plate at 50 μL/well. After incubation at 37° C. for 2 h, the plate was washed 3 times with a plate washing solution. […] The plate was incubated at 37° C. for 1 h and then washed 5 times with a plate washing solution. A TMB substrate (purchased from Seracare, Cat. No. 5120-0077) was added at 50 μL/well and incubated at room temperature for 10 min, then a stop solution (1.0 N HCl) was added at 50 μL/well. OD450 nm values were read using a microplate reader (Biotek). Analysis was performed by the GraphPad Prism software, data were fitted, and EC50 values were calculated. The chimeric antibodies tested all had strong binding to the human CDH6 protein, the monkey CDH6 protein, and the murine CDH6 protein.

[3] = biological target: T2, his-tagged human CDH6 extracellular …; assay: ELISA, coated antigen; ELISA, coated hCDH6 ECD-his; plateau signal
Method: as §1

Binder	Max MFI [1] [MFI]	EC50 [2] [nM]	Max OD450 [2] [OD450]	Max OD450 [3] [OD450]
B1	814	–	–	–
B2	–	0.027	2.07	–
B3	–	0.009	2.62	–
B4	343	–	–	1.79
B5	51300	0.04	2.23	–
B6	–	0.025	2.03	–
B7	–	0.034	2.18	–
B8	–	0.033	2.31	–
B9	–	0.016	2.58	–
B10	7550	–	–	2.56
B11	75	–	–	2.14
B12	39100	0.043	2.32	–
B13	–	0.034	2.24	–
